To fix the notation:
B1: TPR 5TU (parent)
chain: GGAUCUUCUCGAUCUAACAAAAAAGACAAAUCUGCCACAAAGCUUGAGAGCAUCUUCGGAUGCAGAGGCGGCAGCCUUCGGUGGCGCGAUAGCGCCAACGUUCUCAACUAUGACACGCAAAACGCGUGCUCCGUUGAAUGGAGUUUAUCAUG

This sample holds only a part of the variants without activity. Bounds are passed on as bounds.

Variants of B1 are the subject of the data set. As to the kind of experiment: polymerase ribozyme fitness, log enrichment relative to wild type (log ratio); higher = more active; in vitro selection for triplet polymerase activity. The method, boiled down:
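PCR was used to build mutant libraries for each subunit of a heterodimeric triplet polymerase ribozyme, which were then transcribed. A single in vitro selection round, in triplicate, used a frozen incubation at −7 °C and recovered extended constructs by gel excision, streptavidin beads and RT-PCR. Fitness is the logarithm of genotype enrichment relative to wild-type enrichment, averaged over replicates with inverse-variance weights. The logarithm is base 2, and after Illumina sequencing only genotypes with ≥10 input reads and ≥1 read per output were kept.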
Regarding A97C A119G, the “polymerase ribozyme fitness (log ratio)” value was found to be 0.72.

Take A22G C57U G70A A91C: the “polymerase ribozyme fitness (log ratio)” value is at most -4.2.

C85G U144A: the “polymerase ribozyme fitness (log ratio)” value was -2.27.

For C85G U134A, the “polymerase ribozyme fitness (log ratio)” value is -3.86.

As to U44G A120U, the “polymerase ribozyme fitness (log ratio)” value was at most -4.2. In the case of C18G A52U U82A it was -3.02; in that of U55A C85U, -0.644; in that of G65A G84U, -2.89. In the case of A16C C87U it was -1.85. With A40U G92A A119C A120C U148G, the “polymerase ribozyme fitness (log ratio)” value is at most -4.2. On to A26U C87U, for which the “polymerase ribozyme fitness (log ratio)” value is -1.74.

On to A17U C54A A89C C99A G136A, for which the “polymerase ribozyme fitness (log ratio)” value is -4.03. The same measure for G92U C96A U127C U145C A147C: at most -4.2; for G58U G126U A150C: -4.03. Turning to C85A G136A, the “polymerase ribozyme fitness (log ratio)” value is -1.05. In the case of C35U G58A C95U, the “polymerase ribozyme fitness (log ratio)” value is -0.16. For C10A A22U A37C U134C A142G, the “polymerase ribozyme fitness (log ratio)” value was -4.

As for U9G C27G U55A C57A G59A, the “polymerase ribozyme fitness (log ratio)” value is at most -4.2. On to C8U C57U U61A G117A A121U U134C, for which the “polymerase ribozyme fitness (log ratio)” value is -4.09. Turning to C18U A23U A26U A30U C87U C96G C108U G136A, the “polymerase ribozyme fitness (log ratio)” value was at most -4.2. For A22C G46A G59C A91C C99G U101G C116G A138C, the “polymerase ribozyme fitness (log ratio)” value was at most -4.2. Turning to U44A U55A C75A G84A C105U, the “polymerase ribozyme fitness (log ratio)” value is at most -4.2.

For the variant C14U A107U G117A C118A A142G, the “polymerase ribozyme fitness (log ratio)” value is at most -4.2. Take C93A A97G: the “polymerase ribozyme fitness (log ratio)” value is -3.37. The same measure for C8U G141U: -2.76; for U7C C10U A40C C85A A89C G100A C116A: at most -4.2. With C38U C57A G74U G83C, the “polymerase ribozyme fitness (log ratio)” value is at most -4.2.

Turning to C27U G83A C125U U130G U135G, the “polymerase ribozyme fitness (log ratio)” value is at most -4.2. Regarding G25U A52C C87A U90G A142G, the “polymerase ribozyme fitness (log ratio)” value is at most -4.2.

As for G94C A150U, the “polymerase ribozyme fitness (log ratio)” value is 1.09. With A40G C54G G126A, the “polymerase ribozyme fitness (log ratio)” value is -3.46. Turning to C10A U53A C85A C96G G100A U127C U146A, the “polymerase ribozyme fitness (log ratio)” value was at most -4.2. With U90C U148G, the “polymerase ribozyme fitness (log ratio)” value is at most -4.2.

Consider C54U G83C C85G A138G, for which the “polymerase ribozyme fitness (log ratio)” value is at most -4.2. Take U15G C32A G88A A97G: the “polymerase ribozyme fitness (log ratio)” value was at most -4.2. Consider A47G G59A, for which the “polymerase ribozyme fitness (log ratio)” value is 0.381. In the case of A52C C85G G92U, the “polymerase ribozyme fitness (log ratio)” value was at most -4.2. As to G42U A52C C93U, the “polymerase ribozyme fitness (log ratio)” value is at most -4.2. Consider A17U U33A U45A C57G G70C C87A A98U, for which the “polymerase ribozyme fitness (log ratio)” value was at most -4.2.

Turning to A3U U55A, the “polymerase ribozyme fitness (log ratio)” value was -0.84.

Turning to C35U G88C C103U, the “polymerase ribozyme fitness (log ratio)” value was at most -4.2.

For the variant C27A A30C A89G G92A C105U G140U, the “polymerase ribozyme fitness (log ratio)” value was -3.96. In the case of C69A A115U it was -2.49; in that of G83C U148A, -3.1. Consider G141A A147C, for which the “polymerase ribozyme fitness (log ratio)” value was -3.63. As to C57A U146A, the “polymerase ribozyme fitness (log ratio)” value is -0.0166. On to U55A U61C G94U, for which the “polymerase ribozyme fitness (log ratio)” value is at most -4.2. Turning to A39U C103G, the “polymerase ribozyme fitness (log ratio)” value was -4.14.

For the variant A52G A66C G84C C85A G126U, the “polymerase ribozyme fitness (log ratio)” value was at most -4.2. Take C54U U55A: the “polymerase ribozyme fitness (log ratio)” value was -0.284. Regarding G83U C95U, the “polymerase ribozyme fitness (log ratio)” value is -1.53. C14G A20C G50U U53A G126U U139A: the “polymerase ribozyme fitness (log ratio)” value is at most -4.2. Consider G59A A60C C79G G81A U101G C132A U146A, for which the “polymerase ribozyme fitness (log ratio)” value was at most -4.2. Consider C54U C93U C105G G126C, for which the “polymerase ribozyme fitness (log ratio)” value was -2.01. G46C U53A G92U U111G U134C: the “polymerase ribozyme fitness (log ratio)” value is at most -4.2. In the case of G59C G94C it was -0.253; in that of C36U A40G C108G G140A, at most -4.2; in that of G25U G58U A97C, -2.23. In the case of A60U G141U it was 0.392; in that of C54U C75U G84C A98U A113G C129U, at most -4.2. On to A107G G141C, for which the “polymerase ribozyme fitness (log ratio)” value was -3.86. In the case of G48C U55A C93G, the “polymerase ribozyme fitness (log ratio)” value is -3.87. As for G59C C93G, the “polymerase ribozyme fitness (log ratio)” value was -2.98.

In the case of A16U U45C C123A, the “polymerase ribozyme fitness (log ratio)” value is -2.97.

As for C18U C57A A115C G143U U148A, the “polymerase ribozyme fitness (log ratio)” value is at most -4.2. As to C125U U145C, the “polymerase ribozyme fitness (log ratio)” value was -0.634. As for A12G G92C A107G G133U, the “polymerase ribozyme fitness (log ratio)” value was at most -4.2. Regarding U6A C54A C93G, the “polymerase ribozyme fitness (log ratio)” value was at most -4.2. C51G U55G C108A A119U G124A G141A U146A: the “polymerase ribozyme fitness (log ratio)” value was at most -4.2.

Take A22U G80A: the “polymerase ribozyme fitness (log ratio)” value is 0.375. C57A A121U: the “polymerase ribozyme fitness (log ratio)” value is -0.0826. Consider U6G G11C C14U C93A, for which the “polymerase ribozyme fitness (log ratio)” value was at most -4.2. C69U C76G U130A: the “polymerase ribozyme fitness (log ratio)” value is at most -4.2.

As to G46C C54A U61A C63U G70A G84A C93U G100A C116G, the “polymerase ribozyme fitness (log ratio)” value is at most -4.2.

A19G C27U: the “polymerase ribozyme fitness (log ratio)” value is -1.17. In the case of U31C C51A C69U G81A A91U G124A U144G, the “polymerase ribozyme fitness (log ratio)” value is at most -4.2. The same measure for A47G G62U A142G U146G: -4.12; for C57G G140C: -4.08; for C27U G34U C93U G112C U148G: at most -4.2.

C51G G136U U144G: the “polymerase ribozyme fitness (log ratio)” value was -2.56. Take U6C G48C G65A U78A G80A G88C A106G U127C G152U: the “polymerase ribozyme fitness (log ratio)” value was at most -4.2. Regarding C32U A37G G46U U77C G86C A115G A119U, the “polymerase ribozyme fitness (log ratio)” value was at most -4.2.

Regarding C76U C93U C105U, the “polymerase ribozyme fitness (log ratio)” value was -0.938. For C5U A41U G83A, the “polymerase ribozyme fitness (log ratio)” value is -1.02.

The values above are taken from the RNAGym collection of RNA variant scans (doi:10.1073/pnas.2313332121).
